According to PMC9368738, “The Mechanistic Understanding of RAD51 Defibrillation: A Critical Step in BRCA2-Mediated DNA Repair by Homologous Recombination” (International Journal of Molecular Sciences, 2022):
“And” between values parts separate entries of the source, which are not always exact repeats. Equal values may be shown once.

What was measured:
[1] = test system: RAD51 foci in BxPC-3 cell nuclei; assay: Immunofluorescence detection of RAD51 nuclear foci; type: cell-based; settings: 1.5 h
Experimental: General cell culture. BxPC-3 cells (purchased from ATCC) were grown in RPMI 1640 containing 10% FBS, 100 U/mL penicillin–streptomycin, and 2 mM glutamine. All media and supplements were from Sigma-Aldrich. Cultures were routinely tested for mycoplasma contamination. Immunofluorescence. Immunofluorescence was used to study RAD51 nuclear translocation. To visualize RAD51 in cell nuclei, BxPC-3 cells were seeded on glass coverslips placed in a 6-well culture plate (2 × 10^5 cells/well) and allowed to adhere for 24 h. […] The medium was then removed to eliminate the chemotherapeutic agents, and cells were maintained in the presence of 5 µM BRC4myr for an additional 4 h. After this time, cells were fixed with PBS containing PFA 4% for 15 min, permeabilized in 70% ethanol, and then washed twice in PBS. […] After washing, coverslips were incubated in secondary anti-rabbit rhodamine-labelled antibody (Novus Biologicals, 1:1000 in 1% BSA/PBS) for 30 min at 37 °C, washed, air-dried, and mounted in a solution 2 µg/mL DAPI in DABCO. Images were acquired using a Nikon fluorescent microscope equipped with filters for TRITC and DAPI. The percentage of cells bearing nuclear foci was estimated by analyzing approximately 300 cells for each treatment sample.

RAD51 (Homo sapiens) = RAD51 (Homo sapiens) (UniProt Q06609); assay: GST pull-down; settings: cited from earlier work
RAD51 = settings: pull-down assays; cited from earlier work
Text: This information comes from the only 3D structure of the RAD51-BRC4 interaction (PBD 1NOW).

[2] = molecular target: full-length recombinant human RAD51 (N-terminal 6xHis-tagged) (human) (UniProt Q06609)
[3] = molecular target: T1, RAD51 fibrils (full-length recombinant human RAD51) (Homo sapiens, UniProt Q06609); assay: Static light scattering (SLS / CG-MALS) of BRC4-induced RAD51 defibrillation; type: biochemical; settings: RAD51 6.25 µM = 0.25 mg/mL; very significant stoichiometric excesses of peptide
T1 construct: The full-length human RAD51 was expressed in E. coli Rosetta2(DE3) pLysS cells; made in house; host or cells: E. coli Rosetta2(DE3) pLysS, pET15b plasmid
T1 sequence (Q06609 1-339): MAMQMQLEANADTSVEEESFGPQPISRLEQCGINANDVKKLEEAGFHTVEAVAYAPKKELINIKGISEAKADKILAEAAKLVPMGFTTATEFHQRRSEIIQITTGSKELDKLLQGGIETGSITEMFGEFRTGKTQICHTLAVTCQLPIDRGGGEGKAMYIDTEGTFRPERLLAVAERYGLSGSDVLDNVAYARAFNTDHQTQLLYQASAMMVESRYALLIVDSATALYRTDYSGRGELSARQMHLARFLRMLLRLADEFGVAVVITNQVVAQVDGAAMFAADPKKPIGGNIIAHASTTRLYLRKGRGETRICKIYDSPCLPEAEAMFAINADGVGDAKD
Experimental: Static light scattering (SLS) and composition-gradient multi-angle static light scattering (CG-MALS). Measurements were carried out using a Calypso automated delivery system as a mixing unit, connected to a Dawn Heleos II multi-angle light scattering (MALS) and a T-rEX refractive index (RI) detector, both operating at 660 nm (all instruments produced by Wyatt Technology, Santa Barbara, CA, USA). […] Injection volume and flow rate were fixed at 0.8 mL and 1 mL/min, respectively. A delay time of 180 s was set between each injection.

[4] = molecular target: T2, 6xHis-RAD51 (full-length recombinant human RAD51) (Homo sapiens, UniProt Q06609); assay: Microscale thermophoresis (MST); type: binding; settings: highest concentration tested 400 μM; data not shown
T2 construct: The full-length human RAD51 was expressed in E. coli Rosetta2(DE3) pLysS cells; made in house; host or cells: E. coli Rosetta2(DE3) pLysS, pET15b plasmid
T2 sequence (Q06609 1-339): T1 sequence (Q06609 1-339)

RAD51 fibrils = assay: Negative staining TEM of RAD51 fibrils; type: biochemical, human; settings: large stoichiometric excess of peptide; RAD51 0.1 mg/mL (2.5 µM); incubation 2 h at 4 °C
Experimental: After incubation, each sample was adsorbed into pure carbon film 300-mesh copper grids (Electron Microscopy Sciences, Hatfield, PA, USA). After several washes in RAD51 storage buffer (20 mM Hepes (pH 8.00), 250 mM KCl, 0.1 mM EDTA, 2 mM DTT, 10% (v/v) glycerol), each sample was negatively stained using 1% uranyl acetate in MQ water. […] In total, more than 2500 fibrils from different negative staining experiments were measured for quantification.

[5] = molecular target: T3, full-length recombinant human RAD51 (N-terminal 6xHis-tagged) (human, UniProt Q06609 1-339); assay: MST; RED-tris-NTA-labelled 6xHis-RAD51 constant (25 nM in the methods, 100 nM in the results), 16 concentrations of BRC4 up to 32 µM; apparent Kd bounded by the lowest EC50 (titration regime); settings: both partners purified
T3 construct: RAD51, human, full length; recombinase of 339 amino acids, about 40 kDa as monomer; Forms fibrils (homo-oligomers) without DNA; for MST labelled on the His tag with RED-tris-NTA 2nd Generation dye; also called His-RAD51; 6xHis-RAD51; source: E. coli Rosetta2(DE3) pLysS, pET15b, purified (His-Trap, anion exchange); not shown: His6, N-terminal, kept
T3 sequence (looked up): T1 sequence (Q06609 1-339)

[6] = molecular target: T3, full-length recombinant human RAD51 …; assay: static light scattering + other: dynamic light scattering + MST; midpoint of BRC4-induced RAD51 defibrillation against the BRC4/RAD51 molar ratio, RAD51 6.25 µM (SLS, DLS) or 100 nM (MST); settings: both partners purified
[7] = molecular target: T3, full-length recombinant human RAD51 …; assay: static light scattering (CG-MALS) + other: dynamic light scattering; RAD51 constant at 0.25 mg/mL (6.25 µM) with BRC4 or scBRC4 from 0 to 0.19 mg/mL (48 µM); 20 mM HEPES pH 8, 0.1 mM EDTA, 250 mM KCl, 5% glycerol, 2 mM DTT; DLS at 25 °C; step constants kd and kd1 from a defibrillation model fitted to the apparent weight average mass; settings: both partners purified
[8] = molecular target: T3, full-length recombinant human RAD51 …; assay: negative-staining TEM with streptavidin-gold labelling; 0.1 mg/mL (2.5 µM) 6xHis-RAD51 with biotinylated BRC4 (non-labelled BRC4 as control) on grids, streptavidin-gold; settings: both partners purified
[9] = molecular target: T4, full-length recombinant human RAD51 (N-terminal 6xHis-tagged) (human), Q06609; assay: static light scattering (CG-MALS, Zimm plots); RAD51 alone at five concentrations between 0.1 and 0.35 mg/mL (2.5-8.75 µM); 20 mM HEPES pH 8, 0.1 mM EDTA, 250 mM KCl, 5% glycerol, 2 mM DTT; settings: remark: other sources report otherwise
T4 chain: T1 sequence (Q06609 1-339)

Molecule: N.N.[Cl][Pt][Cl] [cisplatin]
- RAD51 nuclear foci, cisplatin alone ([1]; 50 µM cisplatin): large number of nuclear RAD51 foci

Molecule: COc1cccc2c1C(=O)c1c(O)c3c(c(O)c1C2=O)C[C@@](O)(C(=O)CO)C[C@@H]3O[C@H]1C[C@H](N)[C@H](O)[C@H](C)O1 [doxorubicin]
- RAD51 nuclear foci, doxorubicin alone ([1]; 200 nM doxorubicin): large number of nuclear RAD51 foci

Molecule: BRCA2 BRC4 (from UniProt P51587)
- Kd (RAD51 (Homo sapiens)): 1500 nM

Molecule: BRCA2: large protein (3418 amino acids) that interacts with RAD51 through eight BRC repeats
- BRCA2-RAD51 binding affinity (RAD51): nanomolar affinity

Molecule: myristoylated BRC4 peptide (BRC4myr)
- homologous recombination (HR) assay in BxPC-3 cells, IC50 of HR inhibition [2]: 10 µM
- homologous recombination (HR) assay in BxPC-3 cells, percent HR inhibition at 5, 10 and 30 µM BRC4myr [2]: 85.1%

Molecule: scBRC4: BRC4 (35 residues) peptide, carrying a double mutation [F1524A, T1526A] (KEPTLLGAHAASGKKVKIAKESLDKVKNLFDEKEQ)
- apparent weight average mass versus no-interaction prediction [3]: followed the theoretical “no-interaction” prediction
- binding to RAD51 (MST) [4]: no binding
- RAD51 fibrils in TEM (RAD51 fibrils): the fibrils were still visible

B1: BRC4 peptide (residues 1517-1551 of BRCA2) (peptide)
peptide: KEPTLLGFHTASGKKVKIAKESLDKVKNLFDEKEQ
notes: BRCA2, fourth BRC repeat, residues 1517-1551, MW 3957.6 Da; also called fourth BRC repeat of BRCA2; source: bought: Thermo Fisher Scientific (synthetic peptide)
- Kd [5]: ≤ 60 nM
- stoichiometry N [6]: 1 BRC4 per RAD51
- kd (each step of loss of a RAD51 unit from a fibril, from the defibrillation model) [7]: 33.7 ± 0.5 dimensionless

B2: biotinylated BRC4 peptide (peptide)
peptide: B1 peptide
modifications: biotin (position not given)
notes: BRCA2, fourth BRC repeat, residues 1517-1551, as BRC4; also called labelled peptide; source: bought: Thermo Fisher Scientific (synthetic peptide, BRC4 derivative)
- binding result [8]: binds

B3: full-length recombinant human RAD51 (N-terminal 6xHis-tagged), Q06609 1-339 (natural protein)
chain: T1 sequence (Q06609 1-339)
- stoichiometry N (protomers per aggregate) [9]: 40 and 70
